For one experiment, the target named is T1, full-length hRpn13 (human, UniProt Q16186 1-407).
T1 construct: hRpn13/Adrm1, human, full-length protein (Pru and DEUBAD domains); The preparation of the full-length protein is not described; it was not held on Talon resin by itself in the pull-down, so it probably carried no His tag; also called hRpn13 full-length protein; Adrm1; source: purified recombinant protein
In words: fluorescence polarisation; 10 nM FITC-hRpn2 (940–953) with serially diluted full-length hRpn13; 20 mM sodium phosphate, 50 mM NaCl, pH 6.5; room temperature, 30 min; Hill slope model; also with 100 μM RA190 or 2% DMSO. The settings on record: both partners purified.

Experiment [1] deals with T2, hRpn13 (1–150), which includes the Pru domain (human, UniProt Q16186 1-150).
T2 construct: hRpn13/Adrm1, human, residues M1-L150 (Pru domain; N-terminal 19 and C-terminal 20 residues randomly coiled); Isotope-labelled (15N, 13C) in some NMR samples; also called hRpn13 Pru; hRpn13 Pru (1–150); not shown: His tag, N-terminal, cleaved
T2 sequence (Q16186 1-150): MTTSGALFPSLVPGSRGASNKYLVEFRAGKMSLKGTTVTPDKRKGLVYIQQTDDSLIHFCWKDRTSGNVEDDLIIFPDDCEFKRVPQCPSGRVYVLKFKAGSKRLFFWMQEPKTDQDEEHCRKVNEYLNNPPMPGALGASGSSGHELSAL
Briefly: ITC; 25 °C; 200 μM hRpn2 peptide injected into 20 μM or 18 μM hRpn13 Pru in the cell; 20 mM sodium phosphate, 50 mM NaCl, 10 mM βME, pH 7.0; one-site fit. The settings on record: both partners purified. (In general: ITC needs no label: the signal is the heat of the interaction.)

Here are results for three molecules from PMC5494190, “Structure of the Rpn13-Rpn2 complex provides insights for Rpn13 and Uch37 as anticancer targets” (Nature Communications, 2017).

No end group written: not given here. *: point of attachment. FITC‑N3 = fluorescein azide; Pent4ynoyl = C#CCCC(=O)*; AEEA = NCCOCCOCC(=O)O

T1 sequence (Q16186 whole entry, the tested form may be a part): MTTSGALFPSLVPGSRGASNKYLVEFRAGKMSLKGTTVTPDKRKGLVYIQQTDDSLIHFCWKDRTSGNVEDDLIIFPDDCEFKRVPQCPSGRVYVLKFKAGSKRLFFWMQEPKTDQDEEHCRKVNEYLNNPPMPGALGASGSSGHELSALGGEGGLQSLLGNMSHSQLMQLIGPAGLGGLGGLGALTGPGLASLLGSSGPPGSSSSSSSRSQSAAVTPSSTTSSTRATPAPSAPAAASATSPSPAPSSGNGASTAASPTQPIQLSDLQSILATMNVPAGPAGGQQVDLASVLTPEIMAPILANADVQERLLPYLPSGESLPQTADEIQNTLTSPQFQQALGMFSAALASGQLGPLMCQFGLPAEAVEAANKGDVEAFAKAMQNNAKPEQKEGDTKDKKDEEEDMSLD

B1: FITC-hRpn2 (940–953) (peptide)
peptide: {FITC‑N3-Pent4ynoyl-AEEA}-QEPEPPEPFEYIDD
notes: also called FITC-labelled hRpn2 probe; source: synthetic peptide (Fmoc solid-phase synthesis, click coupling to FITC-N3, HPLC purified)
Turning to B1, in the experiment with full-length hRpn13, binding was characterised by a dissociation constant (Kd) of 14.7 nM.

B2: hRpn2 (944–953) (peptide)
peptide: PPEPFEYIDD
notes: source: synthetic peptide (Fmoc chemistry on Wang resin, HPLC purified)
The molecule B2 gave an equilibrium dissociation constant (Kd) in experiment [1] of 1960 ± 220 nM.

B3: hRpn2 (940–953) (peptide)
chain: QEPEPPEPFEYIDD
notes: The author contributions say that peptides were synthesized for the DSF experiment, so the DSF sample may be a synthetic peptide of the same limits; also called hRpn2 peptide; hRpn2 fragment; source: E. coli BL21(DE3) pLysS, purified (Glutathione S-sepharose 4B, PreScission cleavage, Superdex75); not shown: GST, N-terminal, cleaved
In turn, B3 registered a Kd in experiment [1] of 27 ± 10 nM.

In general, Kd refers to a measure of binding affinity in units of concentration. High values mean weaker binding, low ones tighter binding.
